Measured values: publication PMC3099347 (Journal of molecular biology, 2011)

B1: Methanococcus jannaschii FKBP26, construct 231 (full-length, residues 1-231) (natural protein, UniProt Q58235 1-231, looked up)
chain: MVEKGKMVKISYDGYVDGKLFDTTNEELAKKEGIYNPAMIYGPVAIFAGEGQVLPGLDEAILEMDVGEEREVVLPPEKAFGKRDPSKIKLIPLSEFTKRGIKPIKGLTITIDGIPGKIVSINSGRVLVDFNHELAGKEVKYRIKIEEVVDDKKNIVKEIVKMYVPRLSDVKVTIRNGTVKIELPEFAPFIPNIQTAKMAIANEILKRLEDAEKVSFVETFERKKETKEENK
B2: Methanococcus jannaschii FKBP26 fragment 231-ΔIF (1-231Δ83-G-A-G-134) (domain or fragment)
chain: MVEKGKMVKISYDGYVDGKLFDTTNEELAKKEGIYNPAMIYGPVAIFAGEGQVLPGLDEAILEMDVGEEREVVLPPEKAFGKRGAGLAGKEVKYRIKIEEVVDDKKNIVKEIVKMYVPRLSDVKVTIRNGTVKIELPEFAPFIPNIQTAKMAIANEILKRLEDAEKVSFVETFERKKETKEENK

Molecular target: the molecule itself
Test: SEC

Protein | stoichiometry N
B1 | 2
B2 | 2
